Data taken from the supplement of paper PMC9112550, “Optimization of the antimicrobial peptide Bac7 by deep mutational scanning” (BMC Biology, 2022).

Tested on: Escherichia coli TOP10
Test: shrunken log2 fold change of peptide-encoding DNA abundance (4.5 h post-induction vs induction); higher = less antimicrobial activity (less host growth inhibition)
Details: time post-induction: 4.5 h; library: site-saturation at positions 5, 18, 19, 20
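Also: peptides expressed intracellularly from a pBAD plasmid library in pooled LB shake-flask culture, induced with 0.3% L-arabinose, DNA abundance read by NGS, three biological replicates, DESeq2 with apeglm shrinkage.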

RRIRNRPPRLPRPRPRPNQWPRP
shrunken log2 fold change: -0.171

RRIRNRPPRLPRPRPRPNRFPRP
shrunken log2 fold change: 0.0252

RRIRNRPPRLPRPRPRPNSTPRP
shrunken log2 fold change: 2.34

RRIRNRPPRLPRPRPRPNTKPRP
shrunken log2 fold change: -0.306

RRIRNRPPRLPRPRPRPNTPPRP
shrunken log2 fold change: -0.543

RRIRNRPPRLPRPRPRPNTVPRP
shrunken log2 fold change: -0.409

RRIRNRPPRLPRPRPRPNVMPRP
shrunken log2 fold change: -0.16

RRIRNRPPRLPRPRPRPNWWPRP
shrunken log2 fold change: -0.0262

RRIRNRPPRLPRPRPRPNYAPRP
shrunken log2 fold change: -0.178

RRIRNRPPRLPRPRPRPNYGPRP
shrunken log2 fold change: -0.0781

RRIRNRPPRLPRPRPRPNYPPRP
shrunken log2 fold change: -0.0819

RRIRNRPPRLPRPRPRPPCNPRP
shrunken log2 fold change: -0.517

RRIRNRPPRLPRPRPRPPDMPRP
shrunken log2 fold change: 0.0955

RRIRNRPPRLPRPRPRPPDRPRP
shrunken log2 fold change: 0.00517

RRIRNRPPRLPRPRPRPPDTPRP
shrunken log2 fold change: -0.0361

RRIRNRPPRLPRPRPRPPEAPRP
shrunken log2 fold change: 0.0101

RRIRNRPPRLPRPRPRPPEIPRP
shrunken log2 fold change: -0.169

RRIRNRPPRLPRPRPRPPEPPRP
shrunken log2 fold change: 0.184

RRIRNRPPRLPRPRPRPPFRPRP
shrunken log2 fold change: 0.153

RRIRNRPPRLPRPRPRPPFSPRP
shrunken log2 fold change: 0.032

RRIRNRPPRLPRPRPRPPFWPRP
shrunken log2 fold change: 0.196

RRIRNRPPRLPRPRPRPPGEPRP
shrunken log2 fold change: 0.0757

RRIRNRPPRLPRPRPRPPGSPRP
shrunken log2 fold change: -0.123

RRIRNRPPRLPRPRPRPPGYPRP
shrunken log2 fold change: 0.39

RRIRNRPPRLPRPRPRPPHNPRP
shrunken log2 fold change: 0.216

RRIRNRPPRLPRPRPRPPHSPRP
shrunken log2 fold change: 0.183

RRIRNRPPRLPRPRPRPPKGPRP
shrunken log2 fold change: 0.112

RRIRNRPPRLPRPRPRPPKHPRP
shrunken log2 fold change: 0.157

RRIRNRPPRLPRPRPRPPLVPRP
shrunken log2 fold change: 0.089

RRIRNRPPRLPRPRPRPPMDPRP
shrunken log2 fold change: -0.508

RRIRNRPPRLPRPRPRPPMRPRP
shrunken log2 fold change: 1.05

RRIRNRPPRLPRPRPRPPMYPRP
shrunken log2 fold change: -0.25

RRIRNRPPRLPRPRPRPPPDPRP
shrunken log2 fold change: 0.794

RRIRNRPPRLPRPRPRPPRPPRP
shrunken log2 fold change: 0.704

RRIRNRPPRLPRPRPRPPSPPRP
shrunken log2 fold change: 0.538

RRIRNRPPRLPRPRPRPPTRPRP
shrunken log2 fold change: 0.29

RRIRNRPPRLPRPRPRPPTYPRP
shrunken log2 fold change: -0.217

RRIRNRPPRLPRPRPRPPVMPRP
shrunken log2 fold change: 0.139

RRIRNRPPRLPRPRPRPPWQPRP
shrunken log2 fold change: 0.161

RRIRNRPPRLPRPRPRPPYNPRP
shrunken log2 fold change: -0.627

RRIRNRPPRLPRPRPRPQAKPRP
shrunken log2 fold change: -0.00911

RRIRNRPPRLPRPRPRPQCRPRP
shrunken log2 fold change: -0.132

RRIRNRPPRLPRPRPRPQDIPRP
shrunken log2 fold change: -0.252

RRIRNRPPRLPRPRPRPQFVPRP
shrunken log2 fold change: -0.0944

RRIRNRPPRLPRPRPRPQFWPRP
shrunken log2 fold change: 0.0339

RRIRNRPPRLPRPRPRPQHNPRP
shrunken log2 fold change: -0.625

RRIRNRPPRLPRPRPRPQIQPRP
shrunken log2 fold change: -0.214

RRIRNRPPRLPRPRPRPQIWPRP
shrunken log2 fold change: 0.0573

RRIRNRPPRLPRPRPRPQLHPRP
shrunken log2 fold change: -0.358

RRIRNRPPRLPRPRPRPQLQPRP
shrunken log2 fold change: -0.0979

RRIRNRPPRLPRPRPRPQMNPRP
shrunken log2 fold change: -0.614

RRIRNRPPRLPRPRPRPQMRPRP
shrunken log2 fold change: 0.308

RRIRNRPPRLPRPRPRPQMVPRP
shrunken log2 fold change: -0.00674

RRIRNRPPRLPRPRPRPQNIPRP
shrunken log2 fold change: -0.263

RRIRNRPPRLPRPRPRPQPEPRP
shrunken log2 fold change: 0.0878

RRIRNRPPRLPRPRPRPQQHPRP
shrunken log2 fold change: -0.111

RRIRNRPPRLPRPRPRPQQKPRP
shrunken log2 fold change: 0.0694

RRIRNRPPRLPRPRPRPQQSPRP
shrunken log2 fold change: -0.0808

RRIRNRPPRLPRPRPRPQRDPRP
shrunken log2 fold change: 0.0103

RRIRNRPPRLPRPRPRPQRHPRP
shrunken log2 fold change: -0.0566

RRIRNRPPRLPRPRPRPQRKPRP
shrunken log2 fold change: 0.103

RRIRNRPPRLPRPRPRPQSKPRP
shrunken log2 fold change: -0.301

RRIRNRPPRLPRPRPRPQTAPRP
shrunken log2 fold change: -0.0947

RRIRNRPPRLPRPRPRPQTHPRP
shrunken log2 fold change: -0.217

RRIRNRPPRLPRPRPRPQWCPRP
shrunken log2 fold change: -0.0662

RRIRNRPPRLPRPRPRPQYHPRP
shrunken log2 fold change: -0.767

RRIRNRPPRLPRPRPRPRACPRP
shrunken log2 fold change: -0.0233

RRIRNRPPRLPRPRPRPRALPRP
shrunken log2 fold change: 0.117

RRIRNRPPRLPRPRPRPRAPPRP
shrunken log2 fold change: 0.972

RRIRNRPPRLPRPRPRPRAWPRP
shrunken log2 fold change: -0.054

RRIRNRPPRLPRPRPRPRCVPRP
shrunken log2 fold change: -0.0119

RRIRNRPPRLPRPRPRPRCYPRP
shrunken log2 fold change: -0.0588

RRIRNRPPRLPRPRPRPRDKPRP
shrunken log2 fold change: -0.332

RRIRNRPPRLPRPRPRPREFPRP
shrunken log2 fold change: 0.306

RRIRNRPPRLPRPRPRPRFAPRP
shrunken log2 fold change: 0.164

RRIRNRPPRLPRPRPRPRHRPRP
shrunken log2 fold change: 0.202

RRIRNRPPRLPRPRPRPRILPRP
shrunken log2 fold change: -0.0548

RRIRNRPPRLPRPRPRPRMHPRP
shrunken log2 fold change: 0.217

RRIRNRPPRLPRPRPRPRMWPRP
shrunken log2 fold change: 0.28

RRIRNRPPRLPRPRPRPRNKPRP
shrunken log2 fold change: -0.107

RRIRNRPPRLPRPRPRPRPCPRP
shrunken log2 fold change: 0.0913

RRIRNRPPRLPRPRPRPRPGPRP
shrunken log2 fold change: 0.638

RRIRNRPPRLPRPRPRPRQCPRP
shrunken log2 fold change: 0.0196

RRIRNRPPRLPRPRPRPRQKPRP
shrunken log2 fold change: -0.0544

RRIRNRPPRLPRPRPRPRQMPRP
shrunken log2 fold change: 0.0821

RRIRNRPPRLPRPRPRPRSAPRP
shrunken log2 fold change: 0.0888

RRIRNRPPRLPRPRPRPRSCPRP
shrunken log2 fold change: 0.763

RRIRNRPPRLPRPRPRPRSFPRP
shrunken log2 fold change: 0.0523

RRIRNRPPRLPRPRPRPRSKPRP
shrunken log2 fold change: 0.0945

RRIRNRPPRLPRPRPRPRSPPRP
shrunken log2 fold change: 2

RRIRNRPPRLPRPRPRPRSYPRP
shrunken log2 fold change: -0.0727

RRIRNRPPRLPRPRPRPRTPPRP
shrunken log2 fold change: 0.261

RRIRNRPPRLPRPRPRPRVDPRP
shrunken log2 fold change: 0.0415

RRIRNRPPRLPRPRPRPRWLPRP
shrunken log2 fold change: 0.558

RRIRNRPPRLPRPRPRPRWSPRP
shrunken log2 fold change: -0.054

RRIRNRPPRLPRPRPRPSACPRP
shrunken log2 fold change: -0.0258

RRIRNRPPRLPRPRPRPSAVPRP
shrunken log2 fold change: -0.193

RRIRNRPPRLPRPRPRPSCDPRP
shrunken log2 fold change: -0.179

RRIRNRPPRLPRPRPRPSCYPRP
shrunken log2 fold change: -0.181

RRIRNRPPRLPRPRPRPSDRPRP
shrunken log2 fold change: -0.0382

RRIRNRPPRLPRPRPRPSDSPRP
shrunken log2 fold change: -0.0909

RRIRNRPPRLPRPRPRPSFLPRP
shrunken log2 fold change: -0.473

RRIRNRPPRLPRPRPRPSGRPRP
shrunken log2 fold change: -0.0659

RRIRNRPPRLPRPRPRPSHAPRP
shrunken log2 fold change: -0.859

RRIRNRPPRLPRPRPRPSKGPRP
shrunken log2 fold change: -0.00183

RRIRNRPPRLPRPRPRPSMCPRP
shrunken log2 fold change: -0.0503

RRIRNRPPRLPRPRPRPSMFPRP
shrunken log2 fold change: -0.458

RRIRNRPPRLPRPRPRPSNVPRP
shrunken log2 fold change: -0.615

RRIRNRPPRLPRPRPRPSPDPRP
shrunken log2 fold change: 0.0143

RRIRNRPPRLPRPRPRPSPQPRP
shrunken log2 fold change: 0.162

RRIRNRPPRLPRPRPRPSQVPRP
shrunken log2 fold change: -0.0797

RRIRNRPPRLPRPRPRPSRGPRP
shrunken log2 fold change: 0.513

RRIRNRPPRLPRPRPRPSRHPRP
shrunken log2 fold change: -0.061

RRIRNRPPRLPRPRPRPSRYPRP
shrunken log2 fold change: -0.000156

RRIRNRPPRLPRPRPRPSSGPRP
shrunken log2 fold change: -0.649

RRIRNRPPRLPRPRPRPSSNPRP
shrunken log2 fold change: -0.416

RRIRNRPPRLPRPRPRPSTCPRP
shrunken log2 fold change: -0.186

RRIRNRPPRLPRPRPRPSTEPRP
shrunken log2 fold change: 0.118

RRIRNRPPRLPRPRPRPSWAPRP
shrunken log2 fold change: -0.249

RRIRNRPPRLPRPRPRPSWKPRP
shrunken log2 fold change: 0.0635

RRIRNRPPRLPRPRPRPSWLPRP
shrunken log2 fold change: -0.361

RRIRNRPPRLPRPRPRPSWSPRP
shrunken log2 fold change: -0.0724

RRIRNRPPRLPRPRPRPSYLPRP
shrunken log2 fold change: -0.959

RRIRNRPPRLPRPRPRPSYMPRP
shrunken log2 fold change: -1.71

RRIRNRPPRLPRPRPRPTAGPRP
shrunken log2 fold change: 0.0608

RRIRNRPPRLPRPRPRPTASPRP
shrunken log2 fold change: 1.61

RRIRNRPPRLPRPRPRPTAYPRP
shrunken log2 fold change: -0.184

RRIRNRPPRLPRPRPRPTCRPRP
shrunken log2 fold change: 0.142

RRIRNRPPRLPRPRPRPTCTPRP
shrunken log2 fold change: -0.0629

RRIRNRPPRLPRPRPRPTDDPRP
shrunken log2 fold change: 0.0875

RRIRNRPPRLPRPRPRPTDEPRP
shrunken log2 fold change: 0.0528

RRIRNRPPRLPRPRPRPTDMPRP
shrunken log2 fold change: -0.0588

RRIRNRPPRLPRPRPRPTDWPRP
shrunken log2 fold change: 0.328

RRIRNRPPRLPRPRPRPTEKPRP
shrunken log2 fold change: -0.0107

RRIRNRPPRLPRPRPRPTEWPRP
shrunken log2 fold change: 0.0839

RRIRNRPPRLPRPRPRPTFMPRP
shrunken log2 fold change: -0.401

RRIRNRPPRLPRPRPRPTHYPRP
shrunken log2 fold change: -0.109

RRIRNRPPRLPRPRPRPTIFPRP
shrunken log2 fold change: -0.248

RRIRNRPPRLPRPRPRPTIIPRP
shrunken log2 fold change: -0.905

RRIRNRPPRLPRPRPRPTLAPRP
shrunken log2 fold change: 0.556

RRIRNRPPRLPRPRPRPTLVPRP
shrunken log2 fold change: -0.0435

RRIRNRPPRLPRPRPRPTNSPRP
shrunken log2 fold change: -0.279

RRIRNRPPRLPRPRPRPTNTPRP
shrunken log2 fold change: -0.34

RRIRNRPPRLPRPRPRPTQWPRP
shrunken log2 fold change: 0.425

RRIRNRPPRLPRPRPRPTRMPRP
shrunken log2 fold change: 0.245

RRIRNRPPRLPRPRPRPTSHPRP
shrunken log2 fold change: -0.0916

RRIRNRPPRLPRPRPRPTSQPRP
shrunken log2 fold change: 0.187

RRIRNRPPRLPRPRPRPVACPRP
shrunken log2 fold change: -0.0504

RRIRNRPPRLPRPRPRPVAFPRP
shrunken log2 fold change: -0.119

RRIRNRPPRLPRPRPRPVASPRP
shrunken log2 fold change: -0.0843
